Substitutions are numbered along the chain they refer to. Names and notes keep the numbering of the source. Values belong to the binder of their own block, whether it stands above or below them.
How the values were obtained:
[1] = molecular target: T1, human regulatory light chain (MYL2), P10916; assay: Coomassie SDS-PAGE gel-based light chain loading assay; settings: chain shown with the change;; read off a plot
T1 chain: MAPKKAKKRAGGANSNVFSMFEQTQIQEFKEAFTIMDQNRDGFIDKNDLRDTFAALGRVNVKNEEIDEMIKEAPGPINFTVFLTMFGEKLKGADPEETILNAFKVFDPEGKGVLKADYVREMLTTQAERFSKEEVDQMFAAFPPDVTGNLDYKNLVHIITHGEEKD

[2] = molecular target: human essential light chain (MYL3), P08590; assay: as above; settings: chain shown with the change;; read off a plot
human essential light chain (MYL3), P08590, sequence (P08590 whole entry): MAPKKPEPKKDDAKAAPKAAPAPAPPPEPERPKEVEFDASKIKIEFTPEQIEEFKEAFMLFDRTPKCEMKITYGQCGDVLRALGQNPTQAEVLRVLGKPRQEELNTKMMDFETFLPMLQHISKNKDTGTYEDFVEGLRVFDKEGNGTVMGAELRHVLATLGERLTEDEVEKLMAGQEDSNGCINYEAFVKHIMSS

ratio to parent [1]: 0.97 | ratio to parent [2]: 0.96
B1: human β-cardiac myosin 2-hep heavy chain, wild type A797T (protein)
chain: MGDSEMAVFGAAAPYLRKSEKERLEAQTRPFDLKKDVFVPDDKQEFVKAKIVSREGGKVTAETEYGKTVTVKEDQVMQQNPPKFDKIEDMAMLTFLHEPAVLYNLKDRYGSWMIYTYSGLFCVTVNPYKWLPVYTPEVVAAYRGKKRSEAPPHIFSISDNAYQYMLTDRENQSILITGESGAGKTVNTKRVIQYFAVIAAIGDRSKKDQSPGKGTLEDQIIQANPALEAFGNAKTVRNDNSSRFGKFIRIHFGATGKLASADIETYLLEKSRVIFQLKAERDYHIFYQILSNKKPELLDMLLITNNPYDYAFISQGETTVASIDDAEELMATDNAFDVLGFTSEEKNSMYKLTGAIMHFGNMKFKLKQREEQAEPDGTEEADKSAYLMGLNSADLLKGLCHPRVKVGNEYVTKGQNVQQVIYATGALAKAVYERMFNWMVTRINATLETKQPRQYFIGVLDIAGFEIFDFNSFEQLCINFTNEKLQQFFNHHMFVLEQEEYKKEGIEWTFIDFGMDLQACIDLIEKPMGIMSILEEECMFPKATDMTFKAKLFDNHLGKSANFQKPRNIKGKPEAHFSLIHYAGIVDYNIIGWLQKNKDPLNETVVGLYQKSSLKLLSTLFANYAGADAPIEKGKGKAKKGSSFQTVSALHRENLNKLMTNLRSTHPHFVRCIIPNETKSPGVMDNPLVMHQLRCNGVLEGIRICRKGFPNRILYGDFRQRYRILNPAAIPEGQFIDSRKGAEKLLSSLDIDHNQYKFGHTKVFFKAGLLGLLEEMRDERLSRIITRIQAQSRGVLTRMEYKKLLERRDSLLVIQWNIRAFMGVKNWPWMKLYFKIKPLLKSAEREKEMASMKEELEDKVEELLSKNYHLENEVARL

ratio to parent [1]: 1.1 | ratio to parent [2]: 1
B2: human β-cardiac myosin 2-hep heavy chain, wild type F834L (protein)
chain: B1 chain with T797A, F834L

ratio to parent [1]: 1.2 | ratio to parent [2]: 1.1
B3: human β-cardiac myosin 2-hep heavy chain, wild type S782N (protein)
chain: B1 chain with S782N, T797A
